# Test results published in patent publication US20060099650A1 (UNIVERSITY OF MASSACHUSETTS, published 2006).
# B1: PorinB from Neisseria meningitidis (ligand)
# chain: DVTLYGTIKAGVETSRSVFHQNGQVTEVTTATGIVDLGSKIGFKGQEDLGNGLKAIWQVEQKASIAGTDSGWGNRQSFIGLKGGFGKLRVGRLNSVLKDTGDINPWDSKSDYLGVNKIAEPEARLISVRYDSPEFAGLSGSVQYALNDNAGRHNSESYHAGFNYKNGGFFVQYGGAYKRHHQVQEGLNIEKYQIHRLVSGYDNDALYASVAVQQQDAKLTDASNSHNSQTEVAATLAYRFGNVTPRVSYAHGFKGLVDDADIGNEYDQVVVGAEYDFSKRTSALVSAGWLQEGKGENKFVATAGGVGLRHKF
# modifications: biotinylated in the binding assays (sites not given); not stated as biotinylated in the reporter assay
# notes: also called biotinylated PorinB; biotinylated Porin
# Target: T1, TLR4:Fc fusion protein (UniProt O00206 24-631)
# T1 construct: The composition is not described beyond 'the related TLR4:Fc'; also called the TLR4 fusion protein; not shown: Fc part; not described for TLR4:Fc (only 'related' to TLR2:Fc, which carries mouse IgG2a Fc)
# T1 sequence (O00206 24-631 limits assumed): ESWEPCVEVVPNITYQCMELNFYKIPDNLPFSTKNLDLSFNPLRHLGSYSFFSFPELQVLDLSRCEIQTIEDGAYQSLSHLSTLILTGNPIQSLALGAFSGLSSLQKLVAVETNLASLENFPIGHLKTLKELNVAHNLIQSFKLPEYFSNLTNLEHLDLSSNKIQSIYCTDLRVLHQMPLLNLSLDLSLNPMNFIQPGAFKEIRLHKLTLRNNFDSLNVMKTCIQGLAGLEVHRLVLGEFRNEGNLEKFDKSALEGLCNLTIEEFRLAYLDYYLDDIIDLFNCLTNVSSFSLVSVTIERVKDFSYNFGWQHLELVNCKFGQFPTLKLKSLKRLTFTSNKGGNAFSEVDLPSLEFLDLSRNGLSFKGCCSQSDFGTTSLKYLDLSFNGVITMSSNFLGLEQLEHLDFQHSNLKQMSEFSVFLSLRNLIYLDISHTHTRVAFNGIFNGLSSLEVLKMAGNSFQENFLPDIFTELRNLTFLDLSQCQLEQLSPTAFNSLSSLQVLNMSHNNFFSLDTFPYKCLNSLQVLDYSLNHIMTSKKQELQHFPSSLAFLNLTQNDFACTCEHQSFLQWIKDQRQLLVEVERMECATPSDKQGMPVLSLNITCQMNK
# Experiment: ELISA, Fc fusion plated on plastic, biotinylated ligand as probe, anti-biotin-HRP detection
binder,measurement,value
B1,binding result,no binding
